Non-standard residues stand in square brackets, D forms with d. No end group written: not given here. pY = N[C@@H](Cc1ccc(OP(=O)(O)O)cc1)C(=O)O
Assays:
[1] = molecular target: isolated Fes SH2 domain, G463V (mutant G/V) (human, UniProt P07332-1 460-549, G463V (mutant G/V)); assay: FP
[2] = molecular target: isolated Fes SH2 domain, E469K/E472K (mutant EE/KK) (human, UniProt P07332-1 460-549, E469K | E472K); assay: FP
[3] = molecular target: isolated Fes SH2 domain, wild type (human, UniProt P07332-1 460-549); assay: FP
Chain of isolated Fes SH2 domain, wild type (P07332 460-549): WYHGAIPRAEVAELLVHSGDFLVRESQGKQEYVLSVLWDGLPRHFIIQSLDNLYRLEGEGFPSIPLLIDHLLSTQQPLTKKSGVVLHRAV

[4] = molecular target: human Fes SH2-kinase unit (residues I448 to the C terminus), unphosphorylated (human, UniProt P07332-1 448-822); assay: FP; 1 mM ATP and 5 mM MgCl2
Chain of human Fes SH2-kinase unit (residues I448 to the C terminus), unphosphorylated (P07332 448-822): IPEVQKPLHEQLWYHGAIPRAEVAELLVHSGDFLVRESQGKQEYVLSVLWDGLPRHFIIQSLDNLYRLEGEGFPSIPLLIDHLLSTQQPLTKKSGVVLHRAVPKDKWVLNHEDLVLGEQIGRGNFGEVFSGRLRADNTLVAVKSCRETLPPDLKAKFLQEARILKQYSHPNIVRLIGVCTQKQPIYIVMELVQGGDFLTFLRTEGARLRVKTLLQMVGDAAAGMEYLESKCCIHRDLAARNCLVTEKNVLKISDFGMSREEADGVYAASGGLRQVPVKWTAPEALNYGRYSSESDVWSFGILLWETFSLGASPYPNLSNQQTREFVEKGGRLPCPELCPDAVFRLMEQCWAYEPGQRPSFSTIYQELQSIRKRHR

Chain of isolated Fes SH2 domain, G463V (mutant G/V) (P07332 460-549 G463V): as the sequence (P07332 460-549) above, with G4V counted along it
Chain of isolated Fes SH2 domain, E469K/E472K (mutant EE/KK) (P07332 460-549 E469K/E472K): as the sequence (P07332 460-549) above, with E10K, E13K counted along it

- Kd [1]: ~400 nM
- Kd [2]: ~400 nM
- Kd [3]: ~400 nM
- Kd [4]: ~400 nM
Binder: V[pY]EPVSY [pTyr-containing peptide from ezrin (VpYEPVSY)]
